According to US20210206880A1:

Biological target: human β2 adrenergic receptor, wild type (human) (UniProt P07550)
Test: cell-based or functional assay

With MbNb80^cHopQ (designed binder) the apparent potency shift for epinephrine: IC50 for β2AR-wt alone divided by IC50^high in the presence of MbNb80^cHopQ ([3H]-DHA competition) (fold (IC50 ratio)) was 2000 and the apparent potency shift for isoprotenerol: IC50 for β2AR-wt divided by IC50^high in the presence of MbNb80^cHopQ ([3H]-DHA competition) (fold (IC50 ratio)) was 2000.
